# US20150118698A1
# Biological target: monoclonal antibody NB206-15B6-F8, raised against MMCN-151 antigen
# Assay: competitive ELISA on Biotin-… coated plate
binder,measurement,value
EDIEDGTFSK [synthetic free peptide … (MMCN-151)],"OD (450-650), signal at full inhibition",0.5 OD (450-650)
same,"OD (450-650), signal without inhibition",2 OD (450-650)
